{"source": "the DeepSol protein solubility set"}
{"test": "soluble on expression in E. coli; label from the status in PepcDB or PDB records"}
{"sequence": "MGSDKIHHHHHHMRVEIIFLGCGGGRWATITQKKATGGFRIHTNELRMHVDPGPGAIVRLNELKISPWRTNALFISHCHPDHYTDGEIIVEAITQGMTKKRGVFLGSLSVVEGFGEYEYVVSKYHQSKLEEVRVLYPGDSAELYDTTIKATHTKHGDPFGIGFRLSTIYGDIGYTSDTEFIPQLIEDFDGVRILIANIVRKKNERIKGHLCSNDAIDLINSMNKKPELLIMNHMGVKMTNPQIEAEYISQNTGIEVIPARLGLKVELLNGKYKYQLIK", "soluble on expression in E. coli": "not soluble"}
{"sequence": "VKIFERFRKACDEFFKKKGEFFKLLKEGMNANLEKKKALCEKAESLKDSTEWKETAEILTKLQKEWKTIGPVSKKYS", "soluble on expression in E. coli": "not soluble"}
{"sequence": "MGHYRGTWLEIGRMPMLLTDGCVAGYSTYRQGKSADEVLVEDGCREGTPQGKLKTINGVGKIEDFASTKAKMRVRYPLLITFNYWVLYKSPDKSWFISANPSTEDVWVYARSVPSKAKLNRMMMKVRELGYDVKKLEFPLEHHHHHH", "soluble on expression in E. coli": "soluble"}
{"sequence": "MEIQDYTDSEFKHALARNLRSLTRGKKSSKQPIAILLGGQSGAGKTTIHRIKQKEFQGNIVIIDGDSFRSQHPHYLELQQEYGKDSVEYTKDFAGKMVESLVTKLSSLGYNLLIEGTLRTVDVPKKTAQLLKNKGYEVQLALIATKPELSYLSTLIRYEELYIINPNQARATPKEHHDFIVNHLVDNTRKLEELAIFERIQIYQRDRSCVYDSKENTTSAADVLQELFFGEWSQVEKEMLQVGEKRLNELLEK", "soluble on expression in E. coli": "soluble"}
{"sequence": "MSLENNNEIFKEKSRENFNKTADIYDESHDGKFVAPMYDEIIKRILRANPKTVLDVGCGTGNVLKILAKDENLSLYGLDLSEKMIEIAKKNLKGRAELKLGDSENMPWKSNSFDVIVCNASFHHYPNPKKVLIEMKRILKKDGTLIIGDPTAPVIYRQILNLYCKISNKGDYKLYSKKEIENIMKECGFEPFNFIHINHGSFAVNAKIREGHHHHHH", "soluble on expression in E. coli": "soluble"}
{"sequence": "MLDHVSITVSDIAVAEPFYDAIMAALGVVKVGARGDWLGYGERARPEHPDRVYLSIRKGDRPEPAYGRHWCFKATSRAVVDAFWQAGLAHGGVDQGAPGLRDYHPGYYAAFIADPDGNRLEAVCHTLG", "soluble on expression in E. coli": "not soluble"}
{"sequence": "MGHHHHHHSHMKVAQAKLKEIGPDDMNMEEYKKWHEDYSLFRKVSVYLLTGLELYQKGKYQEALSYLVYAYQSNAALLMKGPRRGVKESVIALYRRKCLLELNAKAASLFETNDDHSVTEGINVMNELIIPCIHLIINNDISKDDLDAIEVMRNHWCSYLGQDIAENLQLCLGEFLPRLLDPSAEIIVLKEPPTIRPNSPYDLCSRFAAVMESIQGVSTVTVK", "soluble on expression in E. coli": "not soluble"}
{"sequence": "MTNDDKCTSFFDKNYQTPEFIENKKRQAQQGRRRFLKSAAGMGALASLPALSVSAKAQTSLNELLKTLVKTDPWLTLDATLNQLLPSSPTGPSASEIRATAYLYQVMTVQPTEQDEKDFILKGVGWLNGYANSEKSANFAQLSFADKEQLLRGISNSTAGQNWLNTLLGYIFQAMLSPASYGGNPDGIGWAWLEHQAGFPMPEKGQRYFELPTRARIDLISRVNYDAKRLASSRNKSHQGTKKS", "soluble on expression in E. coli": "not soluble"}
{"sequence": "MGSDKIHHHHHHMNPIQHILDTYPLIVLDGAMATELERKGCNLNDSLWSAKILMEEPELIKQVHTDYFAAGADCAITASYQSTFEGFAARGLSEAEARRLIELSVSIAAEARDEFWSLEENRLNRPKPIIAASIGPYGAYLADGSEYRGNYAISEDELIEFHRPRMKALIEAGADVLACETIPCLTEAKAIVRLLKEFPETYAWISFSAKDGLHISDGTPAADCASWLDEHRQIAALGINCTPLQHIPSLIEELKKNTSKPIIVYPNSGEQYDPETKTWNGAACAESYGASARTWHEKGARLIGGCCRTKPENIQEIAAWARSLKTT", "soluble on expression in E. coli": "not soluble"}
{"sequence": "MRKMMRQSLQAVLPEISGNKTSLLRKSVCSDLLTLFNSPHSALPSLLVSGMPEWQVHNPSDKHLQSWYCRQLRSALLFHEPRIAALQVNLKEAYCHTLAISLEIMLYHDDEPLTFDLVWDNGGWRSATLENVS", "soluble on expression in E. coli": "not soluble"}
{"sequence": "MDKDMQLIRGLHNANRVLQGCALTIGNFDGVHLGHQTVLRHLRQKADELNLPMAVLLFESQPREYFMGKNAPARLMRLRDKIYYLEKAKVDVVIVAKFDRTFAEQLADVFIEQTLVNHLHVKFLSIGDDFKFGSKRQGNFAMLQAASKRFGFIVEDNRSFCLDAQRISSTAIREALANDDLQLAENLLGKPYRIFGRVIHGNKLGRTIGFPTANIRLHRQVNPIKGVYAVKVRLKSGEIFNGVANMGKRPTINGLMQLLEVHLFDFSQNIYGQMVEVEFCHKIRNEIKFPSFDDLKVQIEKDVETAKAFFNSLEHHHHHH", "soluble on expression in E. coli": "not soluble"}
{"sequence": "MKTMTLYVCQNCGYQSAKWLGKCPDCSAWNSLVEEVRGKGKGPSAPLSGVAPVPICDVAGEAEERLPCGISEFDRVLGGGLVAGSVILIGGDPGIGKSTLLLQVMDHLARTVGPVLYVSGEESARQARLRGERLGIRAKELLILAETALETVLAQIGAVAPRAVVIDSIQTMYAPGLESAPGSVSQVRECAGRLMVAAKRSAIPTFIVGHVTKDGSIAGPRVLEHMVDTVLYFEGDRGHAFRILRAVKNRFGSTNEIGVFEMKEGGLCEVRNPSEIFLSERPLGVSGSAVVTTIEGSRPLLVELQALVTPSSLGVPRRTTLGVDANRLALLVAVLDKKVGLHMAGQDIFLNAAGGARVSEPAADLGMVAALASSHLDKVIDPQTVVVGEVGLAGEVRAITQPETRVREAAKLGFTRAVIPAGSLKQVTAVEGMEVIGVKSVEEALDRLLLEHHHHHH", "soluble on expression in E. coli": "not soluble"}
{"sequence": "GPGSMLDEVLHSRVVQALLGALVMRELYSDAAVLLASVPPVLDTGGDTSSKDFGGIPSPLLVATRQDTLASLASFRQCVAARRWVEAVQIIDGSATAQSWAQATPLCAMVAFVRLEMDDPKAARALLLPYLASLPEPPSWEALSTAPVEHAQLWDNFTSHYVFSTTLLAKASFMSGSAYLNISAALLQRALRLSPSYAPARLFAEFVLSFEAQQQHVDAAVSASDYPKVLSVTAEMLRMPEVTRLVRAELYLVRTQAQWMRGQPLEVVHEASRCEQCDPQCALAFRLRADAFAMMSRETEAAADLAVAKHLNARVGALFDELQVQRSRRNAAQVEAKAKRNSVPAFKSFPSASAPLRSSATESFCGSTRRSGAQARMSTDTELSPSLRTHYDVLGVSSNASEAEIRRRYRRLTLQLHPDRLVGAAESDRRAALEAFQLLGNAYSVLSDTQLRATYDAGLPGLH", "soluble on expression in E. coli": "not soluble"}
{"sequence": "MISVMQQMINNDSPEDSKESITSVQQTPFFWPSAAAAIPSIQGESRSERESETGSSPQLAPSSTGMVMPGTAGMYGFGPSRMPTANEFGMMMNPVYTDFYQNPLASTGWYSYGQPYQFTANYSIPSLDGNLSDITIPTTAGSSAATTPNAAMHLPWAISHDGKKKRQPYKKDQISRLEYEYSVNQYLTNKRRSELSAQLMLDEKQVKVWFQVCYRQYSAESLEIINVNFYLMS", "soluble on expression in E. coli": "not soluble"}
{"sequence": "MGSDKIHHHHHHMLIIKRSVAIIAILFSPLSTASNLTSQLHNFFSAQLAGVSDEVRVSIRTAPNLLPPCEQPLLSMSNNSRLWGNVNVLARCGNDKRYLQVNVQATGNYVVAAMPIARGGKLEAGNVKLKRGRLDTLPPRTVLDINQLVDAISLRDLSPDQPIQLTQFRQAWRVKAGQRVNVIASGDGFSANAEGQALNNAAVAQNARVRMVSGQVVSGVVDADGNILINL", "soluble on expression in E. coli": "not soluble"}
{"sequence": "MGSDKIHHHHHHHPHSFVDLKNKVLVDGTQLKGFQMEWTMDEIASAELIYEVKNNPDHQAAKKSITAEMEQTAIENHYFSYLYNAKDQPLKFSVKPSNTTFRIAGNRVVFYITFYLSKPYDLKNNAIRFYTYEPSYYMAMEYNNQQDLSINSSECKAKLTQPNVNNSLRLYASSLDKNQKPNMPDGEDNSLGAQFAQTVEVVCE", "soluble on expression in E. coli": "not soluble"}
{"sequence": "SSGLSFSEMEGCRNLLGLLDNDEIMALCDTVTNRLVQPQDRQDAVHAILAYSQSAEELLRRRKVHREVIFKYLATQGIVIPPATEKHNLIQHAKDYWQKQPQLKLKETPEPVTKTEDIHLFQQQVKEDKKAEKVDFRRLGEEFCHWFFGLLNSQNPFLGPPQDEWGPQHFWHDVKLRFYYNTSEQNVMDYHGAEIVSLRLLSLVKEEFLFLSPNLDSHGLKCASSPHGLVMVGVAGTVHRGNTCLGIFEQIFGLIRCPFVENTWKIKFINLKIMGESSLAPGTLPKPSVKFEQSDLEAFYNVITVCGTNEVRHNVKQASDSGTGDQV", "soluble on expression in E. coli": "soluble"}
{"sequence": "MLVRRLFQPSTLHWAWRTTALNHPLGRHQGGLRWTHSGGRSYRAVIFDTGGVLVPSPGTVAVGWEVQNHVPSGTIVKAFIRGGDSGPWIRFIKGEITTEHFLEEFGRLCSEIAKTSVPVSSYFSLLTSEQVTKQFPVMTQAISQIRAKGLQTAVLTNNFHLSSGESFLPLDRKQFDVVVESCLEGICKPDPRIFQLCLQRLSLQPSEAIFLDDLGSNLKVAASLGIHTIKVDRPETAVKELEALLGFPLHLGVPNTRPVRKTMAIPQDALEKYLKGLLGTHSTGPMELLQFDHGQSNPTYYIRLADRQLVLRKKPSGTLLPSAHAIEREFRIMKALANAGVPVPTVLDLCEDSSIIGTPFYLMEYCPGIIYKDPSLPGLEPSRREAIYTAMNQVLCRIHSVDLQATSLDSFGKQGDYIPRQVQTWTKQYRAAETSSIPAMERLIQWLPLHLPRQQRTTLVHGDFRLDNLIFHPEKAEVLAVLDWELSTLGDPFADVAYSCLAYYLPSSFPILRGFRDQDVTKLGIPTVEEYFRMYCLNMGIPPIDNWNFYMAFSFFRVAAILQGVYKRSLTGQASSATAQQSGKLTESMAELAWDFATKEGFRVFKEMPATKTLSRSYHAWAGPRSPRTPKGVRGHSTVAAASPSHEAKGGLVISPEGLSPAVRKLYEQLVQFIEQKVYPLEPELQRHQASADRWSPSPLIEDLKEKAKAEGLWNLFLPLETDPEKKYGAGLTNVEYAHLCEVMGMSLYASEIFNCSAPDTGNMEILVRYGTEEQKARWLVPLLEGRIRSCFAMTEPQVASSDASNIEASIKEEDGCYVINGHKWWTSGILDPRCKLCVFMGKTDPQAPRHQQQSMLLVPMDSPGITVIRPLSVFGLEDPPGGHGEVRFKDVRVPKENILLGPGRGFEIAQGRLGPGRIHHCMRLIGYSERALALMKTRVMSRTAFGKPLVEQGTILADIARSRVEIEQARLLVLKAAHLMDVAGNKTAALDIAMIKMVVPSMAYHVIDRAIQAFGAAGLSSDYPLAQFFGWARALRFADGPDEVHQLTVAKMELKNQSRMQEPAVPRV", "soluble on expression in E. coli": "soluble"}
{"sequence": "MVVYDCLTDEDFLQKSEHGIGKKAIYYFYGERCPSCESIKPLFDDLCKKYEKTALVYTYPCYNDDQLTGDAFAVNAVPTFVVMNNGEEVTRHVGAEAEKVQELFEKYAV", "soluble on expression in E. coli": "not soluble"}
{"sequence": "MRTISFFNNKGGVGKTTLSTNVAHYFALQGKRVLYVDCDPQCNATQLMLTEEQTESIYLDGLNDEVAERNSLAKTVYAIFVPLREGESQIAAEITPMRSERFGVDVLPGHPALSQIEDLMSDSWQSALGRQTGPFRRIHWAGQLAHAMERDDRYDVIFFDVGPSLGPFNRTVLLGCDAFVTPTATDLFSFHAFGNLARWFDAWVTQYAEIHEGNMAEWKKYSADVEAKTRPLRLGGFDGEGLRYLGYTTLEYVKRRANGQEQLVGAFERFRGRFAAEAERISNSLSKHSNSTLLGHVPHMHSMPATAQDVHAPIMELSSSDRVRGAQINQRNAYAEKINSVAANVYKALFPNELEHHHHHH", "soluble on expression in E. coli": "soluble"}
{"sequence": "GMKLLLTRPEGKNAAMASALDALAIPYLVEPLLSVEAAAVTQAQLDELSRADILIFISTSAVSFATPWLKDQWPKATYYAVGDATADALALQGITAERSPADSQATEGLLTLPSLEQVSGKQIVIVRGKGGREAMADGLRLRGANVSYLEVYQRACPPLDAPASVSRWQSFGIDTIVVTSGEVLENLINLVPKDSFAWLRDCHIIVPSARVETQARKKGLRRVTNAGAANQAAVLDALGM", "soluble on expression in E. coli": "soluble"}
